For one substance, Km and kcat results are on record in publication PMC6333238, “The biosynthetic implications of late-stage condensation domain selectivity during glycopeptide antibiotic biosynthesis” (Chemical Science, 2018).

The subject of the data set is T1, N[C@H](C(=O)O)c1cc(O)cc(O)c1.
T1 construct: full-length final NRPS module C-A-PCP-X-TE, MBP fusion (pET-MBP-1c), Ni-NTA and SEC, E. coli, co-expressed with Tcp17; holo form (PCP loaded with phosphopantetheine by Sfp R4-4); with MbtH-like protein Tcp17
Kind of data set: coupled PPi-release A-domain assay (PPi-PFK/aldolase/TPI/GDH, NADH). The note with it: holo form, 0.5 mM ATP, 1 mM MgCl2, pH 7.4, 0.1 mM EDTA, enzyme 1 μM. It is filed as biochemical, Actinoplanes teichomyceticus.

Sequence of Tcp12 (Actinoplanes teichomyceticus) (chain, as listed by the source): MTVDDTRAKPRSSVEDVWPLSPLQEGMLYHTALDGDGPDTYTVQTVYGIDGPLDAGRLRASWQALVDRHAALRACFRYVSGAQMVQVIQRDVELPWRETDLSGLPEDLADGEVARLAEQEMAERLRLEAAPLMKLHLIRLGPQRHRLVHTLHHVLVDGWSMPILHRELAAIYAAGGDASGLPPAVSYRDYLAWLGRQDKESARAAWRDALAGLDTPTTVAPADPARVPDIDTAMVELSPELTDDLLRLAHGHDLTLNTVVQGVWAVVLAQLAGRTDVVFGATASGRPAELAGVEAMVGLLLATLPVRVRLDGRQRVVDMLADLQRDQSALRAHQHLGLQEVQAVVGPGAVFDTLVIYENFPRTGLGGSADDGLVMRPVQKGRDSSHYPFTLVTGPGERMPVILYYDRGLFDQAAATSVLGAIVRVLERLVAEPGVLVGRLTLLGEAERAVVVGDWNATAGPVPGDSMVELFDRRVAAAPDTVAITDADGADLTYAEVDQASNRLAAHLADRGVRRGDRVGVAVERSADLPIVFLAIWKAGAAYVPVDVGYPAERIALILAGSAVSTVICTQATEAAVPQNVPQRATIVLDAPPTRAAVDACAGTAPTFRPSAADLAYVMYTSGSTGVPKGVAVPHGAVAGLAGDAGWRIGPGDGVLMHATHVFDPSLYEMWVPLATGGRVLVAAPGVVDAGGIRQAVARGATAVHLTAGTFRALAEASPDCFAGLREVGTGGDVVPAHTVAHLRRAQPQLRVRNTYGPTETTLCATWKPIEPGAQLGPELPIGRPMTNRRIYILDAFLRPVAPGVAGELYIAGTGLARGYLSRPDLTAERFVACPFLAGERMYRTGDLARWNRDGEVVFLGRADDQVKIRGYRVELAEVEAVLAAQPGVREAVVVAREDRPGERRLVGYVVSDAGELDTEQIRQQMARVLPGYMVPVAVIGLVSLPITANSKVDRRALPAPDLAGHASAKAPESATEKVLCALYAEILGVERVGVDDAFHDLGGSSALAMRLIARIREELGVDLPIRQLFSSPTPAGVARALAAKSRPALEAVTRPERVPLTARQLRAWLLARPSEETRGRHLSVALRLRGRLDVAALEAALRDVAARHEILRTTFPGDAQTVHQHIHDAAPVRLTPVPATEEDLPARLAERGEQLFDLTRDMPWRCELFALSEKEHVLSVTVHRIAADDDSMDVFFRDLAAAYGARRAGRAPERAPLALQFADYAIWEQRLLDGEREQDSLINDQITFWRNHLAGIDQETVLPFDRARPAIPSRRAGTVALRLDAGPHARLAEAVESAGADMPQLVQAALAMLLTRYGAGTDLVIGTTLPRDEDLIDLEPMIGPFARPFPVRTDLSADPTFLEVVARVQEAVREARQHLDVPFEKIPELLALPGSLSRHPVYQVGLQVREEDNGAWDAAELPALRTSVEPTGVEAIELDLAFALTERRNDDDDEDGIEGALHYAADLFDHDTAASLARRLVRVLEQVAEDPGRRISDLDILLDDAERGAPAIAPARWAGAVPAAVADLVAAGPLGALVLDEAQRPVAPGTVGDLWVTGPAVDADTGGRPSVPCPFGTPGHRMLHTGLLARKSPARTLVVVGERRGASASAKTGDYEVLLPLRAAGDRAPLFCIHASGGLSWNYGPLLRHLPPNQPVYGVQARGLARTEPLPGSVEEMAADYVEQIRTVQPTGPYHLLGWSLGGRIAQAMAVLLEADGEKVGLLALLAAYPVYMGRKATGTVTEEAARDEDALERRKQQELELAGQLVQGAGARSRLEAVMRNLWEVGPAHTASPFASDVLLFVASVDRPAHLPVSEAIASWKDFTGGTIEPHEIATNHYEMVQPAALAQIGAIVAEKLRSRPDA

By Km is commonly meant the concentration of substrate that gives half-maximal velocity. For orientation: kcat means the number of substrate molecules converted per active site and unit of time at saturation. Turning to Tcp12 (Actinoplanes teichomyceticus), the Km is 4 ± 0.1 µM and the kcat stood at 0.01867 ± 0.000167 s⁻¹.
